# Laboratory results as given in patent US20220072087A1, “SPECIFIC COMBINATION THERAPY FOR TREATMENT OF PANCREATIC CANCER” (BioLineRx Ltd., priority 2019, published 2022).
# Bridge positions count the residues as written; N and C are the ends. Square brackets hold non-standard residues; d marks the D form. * marks the point of attachment. 2Nal = N[C@@H](Cc1ccc2ccccc2c1)C(=O)O; Benzoyl(4-F) = O=C(c1ccc(F)cc1)*; Cit = NC(=O)NCCC[C@H](N)C(=O)O
# Columns and labels:
# [1] = system: normal human hematopoietic cells; settings: cited from earlier work
# human keratinocytes = settings: cited from earlier work
# CXCR4 = CXCR4 (Homo sapiens, UniProt P61073); settings: read-out: IC50 (binds to CXCR4 with high affinity); cited from earlier work
# CXCR4, sequence (P61073 whole entry, species assumed): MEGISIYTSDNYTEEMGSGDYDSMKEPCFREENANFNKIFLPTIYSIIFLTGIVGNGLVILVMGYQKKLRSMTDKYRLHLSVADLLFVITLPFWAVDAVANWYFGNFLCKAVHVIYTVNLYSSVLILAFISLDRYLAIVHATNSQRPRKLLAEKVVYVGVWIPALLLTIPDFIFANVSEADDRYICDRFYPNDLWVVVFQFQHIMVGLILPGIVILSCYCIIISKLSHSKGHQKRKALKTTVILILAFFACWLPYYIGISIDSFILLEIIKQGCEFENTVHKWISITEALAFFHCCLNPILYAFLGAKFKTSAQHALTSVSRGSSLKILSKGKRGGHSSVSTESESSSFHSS
# [2] = solubility of BL-8040 powder; type: physicochemical
substance,measurement,setting,value
BL-8040 ({Benzoyl(4-F)}-RR[2Nal]CY[Cit]K[dK]PYR[Cit]CR-NH2; disulfide 4-13 (inferred)),effect on viability,[1],did not affect the viability
same,effect on viability,human keratinocytes,did not affect the viability
same,IC50,CXCR4,0.54 to 4.5 nM
same,solubility,[2]; in 0.45% Sodium Chloride (half normal saline),freely soluble
same,solubility,[2]; in water,freely soluble
